These results are taken from PMC10368638, “Differential CaKAN3-CaHSF8 associations underlie distinct immune and heat responses under high temperature and high humidity conditions”.

This data set deals with CaKAN3-GST (Capsicum annuum? (pepper), UniProt A0A2G2Z1N1 1-250). Nature of the data set: EMSA; EMSA: 20 uL; 5x binding buffer printed as 1 M Tris-HCl pH 7.5, 5 M NaCl, 1 M KCl, 1 M MgCl2, 0.5 M EDTA pH 8.0, 10 mg/mL BSA (apparently stock concentrations). As to conditions: protein: recombinant; tags: GST (pDEST-15); label: Cy5; blunt.
Sequence of CaKAN3-GST (A0A2G2Z1N1 entry or part of it): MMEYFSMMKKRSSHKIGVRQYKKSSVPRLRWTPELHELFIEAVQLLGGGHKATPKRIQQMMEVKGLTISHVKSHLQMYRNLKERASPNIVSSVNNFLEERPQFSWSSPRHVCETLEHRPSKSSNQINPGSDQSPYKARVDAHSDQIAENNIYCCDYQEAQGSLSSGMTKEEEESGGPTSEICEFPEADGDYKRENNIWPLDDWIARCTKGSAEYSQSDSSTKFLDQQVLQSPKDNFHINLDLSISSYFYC

B1: 3x AACAA probe (dsDNA)
DNA 1: AACAAAACAAAACAA
DNA 2: TTGTTTTGTTTTGTT
B1: the binding result is listed as “binds”.

B2: 3x AACAAm probe (3xAAAAA) (dsDNA)
DNA 1: AAAAAAAAAAAAAAA
DNA 2: TTTTTTTTTTTTTTT
Take B2: the binding result is on record as “no binding”.
